The test deals with T1, human ICOS (Inducible T-cell COStimulator) receptor on peripheral CD4 and CD8 T cells (human, UniProt Q9Y6W8 21-199).
T1 construct: Native ICOS on T cells of treated subjects; also called ICOS receptor; CD278
T1 sequence: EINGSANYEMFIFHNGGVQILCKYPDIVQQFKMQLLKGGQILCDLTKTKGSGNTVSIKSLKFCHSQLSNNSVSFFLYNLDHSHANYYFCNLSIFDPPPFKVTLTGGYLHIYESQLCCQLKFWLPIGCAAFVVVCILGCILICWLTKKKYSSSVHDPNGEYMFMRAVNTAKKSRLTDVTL
The test can be described thus: ICOS receptor occupancy on peripheral CD4 and CD8 T cells of dosed subjects (clinical pharmacodynamic analysis).

B1: H2L5 hIgG4PE (antibody, V domains shown)
VH: QVQLVQSGAEVKKPGSSVKVSCKASGYTFTDYAMHWVRQAPGQGLEWMGLISIYSDHTNYNQKFQGRVTITADKSTSTAYMELSSLRSEDTAVYYCGRNNYGNYGWYFDVWGQGTTVTVSS
VL: EIVLTQSPATLSLSPGERATLSCSASSSVSYMHWYQQKPGQAPRLLIYDTSKLASGIPARFSGSGSGTDYTLTISSLEPEDFAVYYCFQGSGYPYTFGQGTKLEIKR
notes: Humanized IgG4PE (S228P, L235E) monoclonal antibody; also called H2L5 IgG4PE; feladilimab
Regarding B1, the binding result was “binds”.

Values taken from patent US20230149543A1 (GlaxoSmithKline, published 2023).
